Measurements published in patent US20250320281A1.

What was measured:
[1] = target: JR-FL gp120 ΔV1/ΔV2 (HIV-1); assay: ELISA, antigen-coated wells
[2] = target: HIV-1 Env of isolate 93IN905 (subtype C) (HIV-1); assay: cell-based or functional assay
[3] = target: HIV-1 Env of isolate VLGCA1 (subtype A) (HIV-1); assay: cell-based or functional assay
[4] = target: HIV-1 envelope glycoprotein (Env) of isolate MGRM-C-010 (HIV-1); assay: cell-based or functional assay
[5] = target: HIV-1 Env of isolate 93IN905 (pseudovirus) (HIV-1); assay: cell-based or functional assay
[6] = target: HIV-1 Env of isolate MGRM-AG-003 (HIV-1); assay: cell-based or functional assay
[7] = target: HIV-1 Env of isolate 6535.3 (subtype B pseudovirus) (HIV-1); assay: cell-based or functional assay
[8] = target: HIV-1 Env of isolate MGRM-Chronic-B-010 (subtype B pseudovirus) (HIV-1); assay: cell-based or functional assay
[9] = target: HIV-1 Env of isolate MGRM-AG-001 (HIV-1); assay: cell-based or functional assay
[10] = target: HIV-1 Env of isolate MGRM-AG-008 (HIV-1); assay: cell-based or functional assay
[11] = target: HIV-1 Env of isolate MGRM-AG-005 (HIV-1); assay: cell-based or functional assay
[12] = target: HIV-1 Env of isolate MGRM-AG-013 (HIV-1); assay: cell-based or functional assay
[13] = target: HIV-1 Env of isolate 92UG005 (pseudovirus) (HIV-1); assay: cell-based or functional assay
[14] = target: HIV-1 Env of isolate JR-FL (subtype B pseudovirus) (HIV-1); assay: cell-based or functional assay
[15] = target: HIV-1 Env of isolate MGRM-AG-006 (HIV-1); assay: cell-based or functional assay
[16] = target: HIV-1 envelope glycoprotein (Env) of isolate APV_6 (HIV-1); assay: cell-based or functional assay
[17] = target: HIV-1 envelope glycoprotein (Env) of isolate APV_13 (HIV-1); assay: cell-based or functional assay
[18] = target: HIV-1 envelope glycoprotein (Env) of isolate MGRM-Chronic-B-003 (HIV-1); assay: cell-based or functional assay
[19] = target: HIV-1 Env of isolate 92WR020 (subtype A) (HIV-1); assay: cell-based or functional assay
[20] = target: HIV-1 envelope glycoprotein (Env) of isolate 6535.3 (HIV-1); assay: cell-based or functional assay
[21] = target: HIV-1 Env of isolate 92WR021 (subtype A) (HIV-1); assay: cell-based or functional assay
[22] = target: HIV-1 Env of isolate 92UG037 (subtype A) (HIV-1); assay: cell-based or functional assay
[23] = target: HIV-1 Env of isolate 92WR026 (subtype A) (HIV-1); assay: cell-based or functional assay
[24] = target: HIV-1 envelope glycoprotein (Env) of isolate CAAN.A2 (HIV-1); assay: cell-based or functional assay
[25] = target: HIV-1 envelope glycoprotein (Env) of isolate JR-FL (HIV-1); assay: cell-based or functional assay
[26] = target: HIV-1 Env of isolate 94 KE 105 (subtype AC) (HIV-1); assay: cell-based or functional assay
[27] = target: HIV-1 Env of isolate 93WR029 (subtype A) (HIV-1); assay: cell-based or functional assay
[28] = target: HIV-1 envelope glycoprotein (Env) of isolate MGRM-Chronic-B-001 (HIV-1); assay: cell-based or functional assay
[29] = target: HIV-1 Env of isolate 92WR024 (subtype A) (HIV-1); assay: cell-based or functional assay
[30] = target: HIV-1 Env of isolate 93UG077 (subtype A) (HIV-1); assay: cell-based or functional assay
[31] = target: HIV-1 envelope glycoprotein (Env) of isolate 92BR020 (HIV-1); assay: cell-based or functional assay
[32] = target: HIV-1 Env of isolate 92RW008 (subtype A) (HIV-1); assay: cell-based or functional assay
[33] = target: HIV-1 Env of isolate 92UG031 (subtype A) (HIV-1); assay: cell-based or functional assay
[34] = target: HIV-1 envelope glycoprotein (Env) of isolate MGRM-Chronic-B-002 (HIV-1); assay: cell-based or functional assay
[35] = target: HIV-1 envelope glycoprotein (Env) of isolate APV_17 (HIV-1); assay: cell-based or functional assay
[36] = target: HIV-1 Env of isolate 92WR009 (subtype A) (HIV-1); assay: cell-based or functional assay
[37] = target: HIV-1 envelope glycoprotein (Env) of isolate MGRM-Chronic-B-008 (HIV-1); assay: cell-based or functional assay
[38] = target: HIV-1 envelope glycoprotein (Env) of isolate MGRM-Chronic-B-004 (HIV-1); assay: cell-based or functional assay
[39] = target: HIV-1 envelope glycoprotein (Env) of isolate 93TH305 (HIV-1); assay: cell-based or functional assay

5329_C19 (PGT-136) (antibody), sequence (VH): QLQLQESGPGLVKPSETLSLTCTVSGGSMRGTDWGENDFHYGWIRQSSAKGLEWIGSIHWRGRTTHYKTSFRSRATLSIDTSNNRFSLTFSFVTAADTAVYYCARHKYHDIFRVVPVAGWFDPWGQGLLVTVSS
5329_C19 (PGT-136) (antibody), sequence (VL): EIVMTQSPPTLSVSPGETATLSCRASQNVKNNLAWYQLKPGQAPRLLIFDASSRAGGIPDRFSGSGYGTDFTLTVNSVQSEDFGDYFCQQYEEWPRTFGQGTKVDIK
5345_I01 (PGT-137) (antibody), sequence (VH): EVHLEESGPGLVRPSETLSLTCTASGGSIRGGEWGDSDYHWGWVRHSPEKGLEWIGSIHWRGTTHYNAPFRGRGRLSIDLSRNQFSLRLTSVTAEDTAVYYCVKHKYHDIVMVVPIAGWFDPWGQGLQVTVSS
5345_I01 (PGT-137) (antibody), sequence (VL): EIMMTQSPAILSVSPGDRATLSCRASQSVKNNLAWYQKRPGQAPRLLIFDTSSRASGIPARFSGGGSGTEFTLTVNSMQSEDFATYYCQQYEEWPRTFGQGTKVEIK
4970_K22 (PGT-144) (antibody), sequence (VH): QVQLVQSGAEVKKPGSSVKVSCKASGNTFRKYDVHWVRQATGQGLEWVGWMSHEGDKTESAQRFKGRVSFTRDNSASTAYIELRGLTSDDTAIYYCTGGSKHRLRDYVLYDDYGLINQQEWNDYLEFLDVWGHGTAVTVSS
4970_K22 (PGT-144) (antibody), sequence (VL): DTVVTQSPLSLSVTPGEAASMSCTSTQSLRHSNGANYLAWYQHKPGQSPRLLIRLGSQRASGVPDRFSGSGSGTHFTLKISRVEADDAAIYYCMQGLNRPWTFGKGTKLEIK

For 5345_I01 (PGT-137) (antibody), the EC50 [1] was 0.2 µg/mL, the IC50 neutralization [2] was 0.042 µg/mL and the IC50 (µg/mL), pseudovirus neutralization [3] was > 50 µg/mL. The IC50 (µg/mL), pseudovirus neutralization [4] was > 50 µg/mL and the Primary Neutralization Index (B cell culture supernatant) [5] was 3.3.

5343_B08 (PGT-135) (antibody) was tested, and the EC50 [1] was 0.1 µg/mL, the IC50 neutralization [2] was 0.011 µg/mL and the IC50 (µg/mL), pseudovirus neutralization [3] was > 50 µg/mL. For the same substance, the IC50 (µg/mL), pseudovirus neutralization [4] was > 50 µg/mL and the Primary Neutralization Index (B cell culture supernatant) [5] was 43.

In the case of 4877_D15 (PGT-122) (antibody), the EC50 [1] is reported as 0.3 µg/mL, the IC50 [6] is reported as 43.7 µg/mL and the IC50 (µg/mL), pseudovirus neutralization [7] is reported as 0.006 µg/mL. The IC50 (µg/mL), pseudovirus neutralization [8] was 0.018 µg/mL, the IC50 [9] was 14.5 µg/mL and the IC50 [10] was > 50 µg/mL. The IC50 [11] was 33.9 µg/mL, the IC50 [12] was 0.521 µg/mL and the IC50, pseudovirus neutralization [13] was > 50 µg/mL. For the same substance, the IC50 (µg/mL), pseudovirus neutralization [14] was 0.026 µg/mL and the IC50 [15] was 0.028 µg/mL.

In the case of 4970_K22 (PGT-144) (antibody), the IC50 (µg/mL), pseudovirus neutralization [16] is reported as > 50 µg/mL, the IC50 (µg/mL), pseudovirus neutralization [17] is reported as > 50 µg/mL and the IC50 (µg/mL), pseudovirus neutralization [18] is reported as 7.41 µg/mL. For the same substance, the IC50 (µg/mL), pseudovirus neutralization [19] was > 50 µg/mL, the IC50 (µg/mL), pseudovirus neutralization [20] was > 50 µg/mL and the IC50 (µg/mL), pseudovirus neutralization [21] was > 50 µg/mL. For the same substance, the IC50 (µg/mL), pseudovirus neutralization [3] was > 50 µg/mL, the IC50 (µg/mL), pseudovirus neutralization [22] was 8.24 µg/mL and the IC50 (µg/mL), pseudovirus neutralization [23] was 32.7 µg/mL. The IC50 (µg/mL), pseudovirus neutralization [24] was > 50 µg/mL, the IC50 (µg/mL), pseudovirus neutralization [25] was > 50 µg/mL and the IC50 (µg/mL), pseudovirus neutralization [26] was 0.29 µg/mL. For the same substance, the IC50 (µg/mL), pseudovirus neutralization [27] was 4.39 µg/mL, the IC50 (µg/mL), pseudovirus neutralization [28] was > 50 µg/mL and the IC50 (µg/mL), pseudovirus neutralization [29] was 16.3 µg/mL. For the same substance, the IC50 (µg/mL), pseudovirus neutralization [30] was > 50 µg/mL, the IC50 (µg/mL), pseudovirus neutralization [31] was 44 µg/mL and the IC50 (µg/mL), pseudovirus neutralization [32] was > 50 µg/mL. For the same substance, the IC50 (µg/mL), pseudovirus neutralization [33] was 2.17 µg/mL, the IC50 (µg/mL), pseudovirus neutralization [34] was > 50 µg/mL and the IC50 (µg/mL), pseudovirus neutralization [35] was 10.3 µg/mL. For the same substance, the IC50 (µg/mL), pseudovirus neutralization [36] was 0.893 µg/mL, the IC50 (µg/mL), pseudovirus neutralization [37] was > 50 µg/mL and the IC50 (µg/mL), pseudovirus neutralization [38] was 9.41 µg/mL. For the same substance, the IC50 (µg/mL), pseudovirus neutralization [39] was > 50 µg/mL.

With 5123_A06 (PGT-125) (antibody) the EC50 [1] was 0.6 µg/mL, the IC50 [6] was > 50 µg/mL and the IC50 (µg/mL), pseudovirus neutralization [7] was 0.01 µg/mL. For the same substance, the IC50 (µg/mL), pseudovirus neutralization [8] was 0.006 µg/mL, the IC50 [9] was > 50 µg/mL and the IC50 [10] was > 50 µg/mL. For the same substance, the IC50 [11] was > 50 µg/mL, the IC50 [12] was 0.004 µg/mL and the IC50, pseudovirus neutralization [13] was > 50 µg/mL. For the same substance, the IC50 (µg/mL), pseudovirus neutralization [14] was 0.009 µg/mL and the IC50 [15] was 0.008 µg/mL.

With 5329_C19 (PGT-136) (antibody) the EC50 [1] was 0.3 µg/mL, the IC50 neutralization [2] was 0.011 µg/mL and the IC50 (µg/mL), pseudovirus neutralization [3] was > 50 µg/mL. For the same substance, the IC50 (µg/mL), pseudovirus neutralization [4] was > 50 µg/mL and the Primary Neutralization Index (B cell culture supernatant) [5] was 5.6.

For 5141_B17 (PGT-126) (antibody), the EC50 [1] was 0.3 µg/mL, the IC50 [6] was > 50 µg/mL and the IC50 (µg/mL), pseudovirus neutralization [7] was 0.022 µg/mL. For the same substance, the IC50 (µg/mL), pseudovirus neutralization [8] was 0.005 µg/mL, the IC50 [9] was > 50 µg/mL and the IC50 [10] was > 50 µg/mL. It also gave an IC50 [11] of 1.21 µg/mL, an IC50 [12] of 0.008 µg/mL and an IC50, pseudovirus neutralization [13] of 0.037 µg/mL. It also gave an IC50 (µg/mL), pseudovirus neutralization [14] of 0.014 µg/mL and an IC50 [15] of 0.01 µg/mL.

4858_P08 (PGT-123) (antibody) was tested, and the EC50 [1] was 0.3 µg/mL, the IC50 [6] was > 50 µg/mL and the IC50 (µg/mL), pseudovirus neutralization [7] was 0.004 µg/mL. It also gave an IC50 (µg/mL), pseudovirus neutralization [8] of 0.009 µg/mL, an IC50 [9] of 2.51 µg/mL and an IC50 [10] of 19.2 µg/mL. The IC50 [11] was 0.149 µg/mL, the IC50 [12] was 3.37 µg/mL and the IC50, pseudovirus neutralization [13] was 9.79 µg/mL. It also gave an IC50 (µg/mL), pseudovirus neutralization [14] of 0.014 µg/mL and an IC50 [15] of 0.014 µg/mL.

With 5145_B14 (PGT-127) (antibody) the EC50 [1] was 0.7 µg/mL, the IC50 [6] was > 50 µg/mL and the IC50 (µg/mL), pseudovirus neutralization [7] was 0.02 µg/mL. The IC50 (µg/mL), pseudovirus neutralization [8] was 0.019 µg/mL, the IC50 [9] was > 50 µg/mL and the IC50 [10] was > 50 µg/mL. For the same substance, the IC50 [11] was > 50 µg/mL, the IC50 [12] was 0.018 µg/mL and the IC50, pseudovirus neutralization [13] was 1.11 µg/mL. For the same substance, the IC50 (µg/mL), pseudovirus neutralization [14] was 0.029 µg/mL and the IC50 [15] was 0.021 µg/mL.
